Measurements reported in article PMC3189932, “Viral Double-Strand RNA-Binding Proteins Can Enhance Innate Immune Signaling by Toll-Like Receptor 3”.

Tests used:
H-cp183 = H-cp183 (Hepatitis B virus, UniProt P03147 1-183); assay: UV crosslinking; 4 mM Mg2+; 50 mM Tris-HCl pH 7.5, 4 mM MgCl2, 50 mM NaCl, 1 mM DTT; 400 ng protein, 1 pmol RNA; UV 1200 mJ 3 min then SDS-PAGE (crosslinking); nondenaturing stacked 5/20%; settings: protein: recombinant; chain copies: 2; label: Cy5; hairpin, 11-bp stem, GNRA tetraloop
Chain of H-cp183 (P03147 whole entry): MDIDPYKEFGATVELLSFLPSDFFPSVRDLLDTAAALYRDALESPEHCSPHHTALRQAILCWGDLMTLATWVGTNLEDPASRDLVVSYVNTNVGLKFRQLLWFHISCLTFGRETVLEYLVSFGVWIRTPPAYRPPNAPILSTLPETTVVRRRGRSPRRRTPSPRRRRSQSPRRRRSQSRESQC

B-cp = biological target: T1, B-cp (Brome mosaic virus, UniProt P03602 1-189); assay: as above; settings: protein: native; label: Cy5; hairpin, 11-bp stem, GNRA tetraloop
T1 sequence: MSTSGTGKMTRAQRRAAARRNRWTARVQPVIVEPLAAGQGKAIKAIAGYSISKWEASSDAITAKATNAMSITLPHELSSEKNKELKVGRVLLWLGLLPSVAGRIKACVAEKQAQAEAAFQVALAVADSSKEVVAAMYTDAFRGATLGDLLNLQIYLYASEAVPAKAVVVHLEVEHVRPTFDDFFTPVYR

R-cp = R-cp (Ross River virus, UniProt P13890 1-270); assay: as above; settings: protein: recombinant; label: Cy5; hairpin, 11-bp stem, GNRA tetraloop
Chain of R-cp (P13890 1-270): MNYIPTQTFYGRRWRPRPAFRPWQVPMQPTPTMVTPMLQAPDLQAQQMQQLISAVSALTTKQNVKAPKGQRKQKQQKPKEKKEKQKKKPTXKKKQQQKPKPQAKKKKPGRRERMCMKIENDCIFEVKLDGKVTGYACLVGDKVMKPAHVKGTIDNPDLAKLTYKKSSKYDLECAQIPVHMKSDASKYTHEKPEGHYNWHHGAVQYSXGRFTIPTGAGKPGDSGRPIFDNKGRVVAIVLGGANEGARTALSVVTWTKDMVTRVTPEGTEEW

H-cp149 = H-cp149 (Hepatitis B virus, UniProt P03147 1-149); assay: UV crosslinking; 4 mM Mg2+; no shift; 50 mM Tris-HCl pH 7.5, 4 mM MgCl2, 50 mM NaCl, 1 mM DTT; 400 ng protein, 1 pmol RNA; UV 1200 mJ 3 min then SDS-PAGE (crosslinking); nondenaturing stacked 5/20%; settings: protein: recombinant; chain copies: 2; label: Cy5; hairpin, 11-bp stem, GNRA tetraloop
Chain of H-cp149 (P03147 1-149): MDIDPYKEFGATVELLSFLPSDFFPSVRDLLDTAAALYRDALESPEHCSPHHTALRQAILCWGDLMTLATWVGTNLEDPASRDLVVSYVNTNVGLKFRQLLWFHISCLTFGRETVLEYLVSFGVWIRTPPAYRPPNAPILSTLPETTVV

Binder: CCAAGUCAUUCGCAAGAGUGGCUUGG (structured_RNA) [SL26]
- binding result (H-cp183): binds
- binding result (B-cp): binds
- binding result (R-cp): binds
- binding result (H-cp149): no binding
